Consider one molecule from US20140314793A1 (BIOINVENT INTERNATIONAL, published 2014).

For experiment [1], the target named is T1, intercellular cell adhesion molecule-1 (ICAM-1) on the surface of human cells (human, UniProt P05362 28-532).
T1 construct: whole, on cells; Endogenous antigen; also called CD54
Briefly: flow cytometry on ARH-77 cells, % of maximal cell ICAM-1 binding.

Experiment [2] deals with T1, intercellular cell adhesion molecule-1 …. Briefly: 125I-IgG saturation binding, Rosenthal-Scatchard plot (legend of FIG. 5; Ramos cells in the panels, 'Raji cells' at the end of the sentence); legend of FIG. 5; Ramos cells (right panels, IgG B11), though the sentence ends '(Raji cells)'. As for the experimental part: (§1) Analysis was performed in triplicates.
(§2) Antibody affinity constants (Kd values) and epitope numbers per cell were determined from Scatchard plot analysis according to Rosenthal et al. (Anal. Biochem. (1967) 20:525-532); Bylund and Yamamura (Methods in Neurotransmitter Analysed, New York: Raven Press Ltd., 1990); and Marquardt (J. Soc. Indust. Appl. Math. (1963) 11:431-441), as previously described (Brix et al., J. Clin. Invest. (1998) 102:283-293).
(§3) The specific binding of [¹²⁵I]IgG to the cell surface was calculated by subtracting non-specific binding (binding in the presence of excess unlabelled IgG) from the total binding.

Experiment [3] has the same target. In words: FACS of bone marrow cells, patient 4.
The target is the same in experiment [4]. Briefly: FACS of bone marrow cells, patient 13.
Experiment [5] has the same target. Briefly: FACS of bone marrow cells, patient 14.
For experiment [6] the target is unchanged. Briefly: FACS of bone marrow cells, patient 5.
Experiment [7] shares this target. In words: FACS of bone marrow cells, patient 9.
Experiment [8] shares this target. In words: 125I-IgG saturation binding on Ramos cells at 4° C., Rosenthal-Scatchard plot. As for the experimental part:
(§4) Specific binding was determined by subtracting binding in the presence of unlabeled competing protein from total binding.
as §2, §3

The target is the same in experiment [9]. Briefly: flow cytometry, AF647 Zenon-labelled IgG.
Experiment [10] shares this target. Briefly: FACS of tumor cells incubated with serially diluted AF647-BI-505 after FcγR pre-block with human IgG (receptor occupancy). As for the experimental part:
The experiment was repeated three times and mean MFI values were calculated and plotted as a function of antibody concentration. […] The curve was fitted using a five-parameter log-log curve and XLfit software. […] Cells received treatment in triplicate and the experiment was repeated three to five times. […] In vitro PCD and in vivo anti-tumor activity were plotted as a function of receptor occupancy using curve fitting equations and data generated and described above.

For experiment [11] the target is unchanged. Briefly: FACS of bone marrow cells, patient 7.
The target is the same in experiment [12]. In words: FACS of bone marrow cells, patient 8.
The target is the same in experiment [13]. In words: saturation binding of radioiodinated IgG to Ramos cells, unlabelled IgG subtracted. As for the experimental part:
as §4, §1, §3

T1 sequence (P05362 28-532): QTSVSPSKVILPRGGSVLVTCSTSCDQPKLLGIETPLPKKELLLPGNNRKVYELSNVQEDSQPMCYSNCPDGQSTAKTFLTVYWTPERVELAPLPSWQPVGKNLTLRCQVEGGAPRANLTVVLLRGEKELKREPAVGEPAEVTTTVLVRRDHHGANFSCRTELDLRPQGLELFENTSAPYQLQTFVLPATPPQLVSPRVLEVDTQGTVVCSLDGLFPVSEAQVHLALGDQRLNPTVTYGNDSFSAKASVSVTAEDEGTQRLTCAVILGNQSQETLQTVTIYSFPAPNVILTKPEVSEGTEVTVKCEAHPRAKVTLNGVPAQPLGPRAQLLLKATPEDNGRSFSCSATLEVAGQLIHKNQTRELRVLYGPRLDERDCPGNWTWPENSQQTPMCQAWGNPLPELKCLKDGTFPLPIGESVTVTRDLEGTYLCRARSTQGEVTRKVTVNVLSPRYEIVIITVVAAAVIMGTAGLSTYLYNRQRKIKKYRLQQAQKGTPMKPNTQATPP

B1: B11 IgG1 (BI-505), fully human anti-ICAM-1 antibody (antibody, V domains shown)
VH: EVQLLESGGGLVQPGGSLRLSCAASGFTFSNAWMSWVRQAPGKGLEWVAFIWYDGSNKYYADSVKGRFTISRDNSKNTLYLQMNSLRAEDTAVYYCARYSGWYFDYWGQGTLVTVSS
VL: QSVLTQPPSASGTPGQRVTISCTGSSSNIGAGYDVHWYQQLPGTAPKLLIYDNNNRPSGVPDRFSGSKSGTSASLAISGLRSEDEADYYCQSYDSSLSAWLFGGGTKLTVL
notes: That 6 is VH and 8 is VL follows only from the order 'VH and VL'; also called IgG B11
B1: the “EC50 (read off the curve)” value is about 0.05 µg/mL in experiment [1], about 0.4 µg/mL in experiment [10] and about 0.3 nM in experiment [13]. Moreover, the Kd in experiment [2] was about 0.3 nM; in experiment [8] it was about 0.2 nM. Moreover, the “fold increase of BI-505 epitope on MM cells compared to normal B cells” value was found to be 9 fold in experiment [3]; 47 fold in experiment [4]; 5 fold in experiment [5]; 9 fold in [6]; 18 fold in [7]; 45 fold in [11]. In addition, in experiment [12], the “fold increase of BI-505 epitope on MM cells compared to normal B cells” value was found to be 12 fold. Moreover, the “fold binding, Ramos versus NK cells” value in experiment [9] worked out at 23 fold. Also, the “fold binding, Ramos versus monocyte cells” value in [9] is 3.7 fold. Also, the “fold binding, Ramos versus peripheral blood B lymphocytes” value in experiment [9] is 8.3 fold.
